Numbering of substitutions follows the chain as printed.

50 molecules from patent US20230125550A1 (ARCELLX, published 2023) can be followed below.

Sequences and labels used below:
T1: AFP p26 (human, UniProt P02771 381-609)
T1 construct: The construct used is not described
T1 sequence: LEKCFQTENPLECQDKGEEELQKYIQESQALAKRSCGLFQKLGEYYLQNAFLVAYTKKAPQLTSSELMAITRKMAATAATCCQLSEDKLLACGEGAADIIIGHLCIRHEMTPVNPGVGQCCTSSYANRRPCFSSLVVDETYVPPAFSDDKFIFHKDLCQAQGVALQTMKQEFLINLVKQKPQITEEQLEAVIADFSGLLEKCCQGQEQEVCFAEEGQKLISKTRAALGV

B1: SEQ ID NO 817 (designed binder)
chain: MGSWYEFDHRLMAISFRLVALGGSEAELAAFEKEIAAFESELQAYKGKGNPEVETLRRRAANIRHLLQAYRHN
B2: SEQ ID NO 768 (designed binder)
chain: MGSWSEFVKRLDAIDQRLWALGGSEAELAAFEKEIAAFESELQAYKGKGNPEVESLRVHAAAIRAWLQAYRHN
B3: SEQ ID NO 790 (designed binder)
chain: B2 chain with S5A, V8S, K9D, D12N, S55I, V58E, A62E, A65K, W66F
B4: SEQ ID NO 791 (designed binder)
chain: B2 chain with S5M, V8N, K9H, D12Q, Q16G, S55M, V58E, W66F
B5: SEQ ID NO 792 (designed binder)
chain: B2 chain with S5Y, V8Y, D12E, Q16N, W19Y, S55Y, V58E, A65H
B6: SEQ ID NO 798 (designed binder)
chain: B2 chain with S5Y, V8M, K9Y, D15E, Q16Y, W19F, V58I, A62M, A65E
B7: SEQ ID NO 775 (designed binder)
chain: B2 chain with S5Y, V8Y, K9L, Q16H, S55M, V58E, A62H, A65K
B8: SEQ ID NO 773 (designed binder)
chain: B2 chain with S5N, V8F, K9Q, D12N, Q16E, S55D, V58Q, A62N, A65W
B9: SEQ ID NO 803 (designed binder)
chain: MGSWSEFYYRLAAIESRLFALGGSEAELAAFEKEIAAFESELQAYKGKGNPEVERLREHAAHIRRWLQAYRHN
B10: SEQ ID NO 776 (designed binder)
chain: MGSWYEFRARLLAIDERLWALGGSEAELAAFEKEIAAFESELQAYKGKGNPEVEHLREHAAHIRNFLQAYRHN
B11: SEQ ID NO 801 (designed binder)
chain: B9 chain with S5V, Y8V, Y9E, A12D, S16F, R55K, E58N, R65S
B12: SEQ ID NO 796 (designed binder)
chain: B2 chain with S5F, V8F, K9E, D12A, D15E, Q16D, W66F
B13: SEQ ID NO 770 (designed binder)
chain: B2 chain with S5V, V8H, K9Y, D12Q, Q16A, S55E, A62H, A65K
B14: SEQ ID NO 793 (designed binder)
chain: B9 chain with S5Y, A12E, E15D, S16N, F19I, R55V, H62K, R65E
B15: SEQ ID NO 789 (designed binder)
chain: B2 chain with S5T, V8Y, K9Q, Q16T, S55G, V58Q, H59Q, A62Q
B16: SEQ ID NO 788 (designed binder)
chain: B2 chain with S5L, V8H, K9S, Q16T, S55K, V58E, A65H, W66Y
B17: SEQ ID NO 800 (designed binder)
chain: B2 chain with S5Y, K9I, D15E, Q16D, W19F, S55H, A62H, A65V
B18: SEQ ID NO 805 (designed binder)
chain: B9 chain with S5Y, Y9D, A12D, S16D, R55S, E58D, H59Q, H62Y, R65T
B19: SEQ ID NO 799 (designed binder)
chain: B9 chain with S5V, Y8V, Y9T, A12E, S16D, R55H, E58A, R65H
B20: SEQ ID NO 779 (designed binder)
chain: B2 chain with V8F, D12E, Q16R, S55E, V58E, A62H, A65V
B21: SEQ ID NO 769 (designed binder)
chain: B9 chain with S5E, A12E, E15D, S16A, R55E, E58V, R65D
B22: SEQ ID NO 782 (designed binder)
chain: B2 chain with S5T, V8H, K9Q, Q16E, S55F, V58E, A62K, A65M
B23: SEQ ID NO 778 (designed binder)
chain: B2 chain with S5T, V8Q, K9N, D12N, Q16H, V58E, A62K, A65V
B24: SEQ ID NO 804 (designed binder)
chain: B9 chain with S5Y, Y9L, A12S, S16D, R55S, E58V, H59Q, R65T
B25: SEQ ID NO 785 (designed binder)
chain: B2 chain with S5M, K9D, D12S, Q16R, S55V, V58E, A62N, A65Q
B26: SEQ ID NO 780 (designed binder)
chain: B10 chain with R8Q, A9Q, L12E, E16T, H55E, N65H, F66W
B27: SEQ ID NO 772 (designed binder)
chain: MGSWNEFMDRLNAIDNRLWALGGSEAELAAFEKEIAAFESELQAYKGKGNPEVENLRKQAASIRLWLQAYRHN
B28: SEQ ID NO 807 (designed binder)
chain: B2 chain with S5V, V8Y, K9H, D12E, D15E, W19M, V58E, H59Q, A65S
B29: SEQ ID NO 781 (designed binder)
chain: B2 chain with S5T, V8E, D12H, Q16Y, S55D, V58E, A65H
B30: SEQ ID NO 806 (designed binder)
chain: B9 chain with S5H, Y8W, Y9V, A12E, R55S, E58V, H59Q, R65S
B31: SEQ ID NO 783 (designed binder)
chain: B10 chain with Y5L, R8S, A9Q, L12T, E16S, H55N, H62K, F66W
B32: SEQ ID NO 802 (designed binder)
chain: B2 chain with K9H, D15E, Q16V, W19F, S55E, V58Y, A62K, A65S
B33: SEQ ID NO 774 (designed binder)
chain: B10 chain with R8V, A9V, L12F, H55S, N65S, F66W
B34: SEQ ID NO 795 (designed binder)
chain: B9 chain with S5Y, Y8S, Y9H, A12E, S16D, R55P, H62Y, R65H
B35: SEQ ID NO 797 (designed binder)
chain: B2 chain with S5I, V8K, K9Y, D15E, Q16W, W19E, V58I, A65T
B36: SEQ ID NO 794 (designed binder)
chain: B2 chain with S5Y, K9S, D12E, Q16D, W19Y, S55M, V58Q, A65H
B37: SEQ ID NO 786 (designed binder)
chain: B2 chain with S5V, K9S, D12Y, Q16F, S55A, V58E, A62Q, A65D
B38: SEQ ID NO 787 (designed binder)
chain: B2 chain with V8H, K9T, Q16T, S55D, V58R, A65F
B39: SEQ ID NO 771 (designed binder)
chain: B2 chain with S5V, K9G, D12N, Q16A, S55E, V58H, A62E, A65N
B40: SEQ ID NO 808 (designed binder)
chain: B9 chain with S5V, Y9E, A12N, S16Y, F19E, R55S, H62Y, R65Q
B41: SEQ ID NO 784 (designed binder)
chain: B2 chain with S5T, K9N, D12Y, Q16S, S55G, V58T, A62K, A65H
B42: SEQ ID NO 809 (designed binder)
chain: MGSWVEFYHRLDAIFDRLDALGGSEAELAAFEKEIAAFESELQAYKGKGNPEVEELRANAAGIRSWLQAYRHN
B43: SEQ ID NO 810 (designed binder)
chain: B27 chain with N5S, M8T, N12F, D15E, N16D, W19L, N55D, K58M, Q59H
B44: SEQ ID NO 811 (designed binder)
chain: MGSWHEFYDRLYAIWDRLDALGGSEAELAAFEKEIAAFESELQAYKGKGNPEVEGLRNAAAVIRIFLQAYRHN
B45: SEQ ID NO 816 (designed binder)
chain: MGSWGEFTVRLYAIDRRLDALGGSEAELAAFEKEIAAFESELQAYKGKGNPEVEELRRFAAIIRAFLQAYRHN
B46: SEQ ID NO 818 (designed binder)
chain: MGSWSIFKYHLADIKLLLEALGGSEAELAYFEFLIADFEFTLQDYKGKGNPEVEALRKEAAAIRDELQAYRHN
B47: SEQ ID NO 812 (designed binder)
chain: MGSWFEFSNRLYAIWHRLTALGGSEAELAAFEKEIAAFESELQAYKGKGNPEVESLRTQAAFIRILLQAYRHN
B48: SEQ ID NO 814 (designed binder)
chain: B47 chain with S8E, N9D, Y12F, H16T, T19E, T58Q, Q59S, F62S, I65W
B49: SEQ ID NO 813 (designed binder)
chain: B47 chain with N9D, H16E, T19D, T58F, I65Y, L66Q
B50: SEQ ID NO 815 (designed binder)
chain: MGSWHEFSERLFAIWTRLEALGGSEAELAAFEKEIAAFESELQAYKGKGNPEVEALRQSAAFIRVMLQAYRHN

The assay deals with T1, AFP p26. The experiment in a line: phage ELISA, A450 target/A450 IgG1-Fc. A digest of the protocol:
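The ELISA ratio divides target absorbance by IgG1-Fc absorbance and averages this over all screened wells holding a given clone. Phage came from phagemid colonies picked from panning output and were rescued with VCSM13 helper phage in 96-well format. After coating with 1.3 microg/ml goat anti-human IgG1-Fc antibody, wells were loaded with 5 nM recombinant human target or IgG1-Fc, then with 50 microl phage diluted 5× in ELISA blocking buffer, and bound phage were read at 450 nm using HRP-conjugated anti-M13 antibody.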
For orientation: An ELISA detects its analyte on a solid surface through an enzyme-linked reagent.
Regarding B1, the ELISA_avg stood at 20.1 ratio.

On to B2, for which the ELISA_avg was 27 ratio.

Turning to B3, the ELISA_avg is 25.3 ratio.

Consider B4, for which the ELISA_avg was 33.4 ratio.

With B5, the ELISA_avg came to 30.8 ratio.

B6 came in with an ELISA_avg of 19.4 ratio.

Molecule B7 had an ELISA_avg of 16 ratio.

B8 gave an ELISA_avg of 28.7 ratio.

B9 returned an ELISA_avg of 30.8 ratio.

For B10, the ELISA_avg was determined as 20.9 ratio.

On to B11, for which the ELISA_avg came to 23.8 ratio.

Consider B12, for which the ELISA_avg was determined as 20.3 ratio.

As to B13, the ELISA_avg came to 14.8 ratio.

Regarding B14, the ELISA_avg stood at 29.6 ratio.

For B15, the ELISA_avg was 29.7 ratio.

Molecule B16 returned an ELISA_avg of 30.8 ratio.

On to B17, for which the ELISA_avg was 30.1 ratio.

For B18, the ELISA_avg was 31.9 ratio.

On to B19, for which the ELISA_avg came to 11.7 ratio.

As for B20, the ELISA_avg came out at 30.2 ratio.

Molecule B21 registered an ELISA_avg of 30.3 ratio.

The molecule B22 displayed an ELISA_avg of 24.4 ratio.

In turn, B23 showed an ELISA_avg of 30.5 ratio.

With B24, the ELISA_avg worked out at 27.4 ratio.

As for B25, the ELISA_avg worked out at 32.1 ratio.

Molecule B26 had an ELISA_avg of 27.3 ratio.

In turn, B27 gave an ELISA_avg of 10 ratio.

Turning to B28, the ELISA_avg was found to be 28.5 ratio.

Take B29: the ELISA_avg was 17.1 ratio.

B30: the ELISA_avg was 26.9 ratio.

For B31, the ELISA_avg worked out at 30.4 ratio.

B32 displayed an ELISA_avg of 16.9 ratio.

B33 showed an ELISA_avg of 18.2 ratio.

The molecule B34 displayed an ELISA_avg of 26 ratio.

As to B35, the ELISA_avg was 18.3 ratio.

Take B36: the ELISA_avg came to 33.1 ratio.

In turn, B37 showed an ELISA_avg of 29 ratio.

B38 showed an ELISA_avg of 23.5 ratio.

Molecule B39 displayed an ELISA_avg of 26 ratio.

In the case of B40, the ELISA_avg came out at 28.7 ratio.

B41 showed an ELISA_avg of 16.7 ratio.

In turn, B42 showed an ELISA_avg of 20 ratio.

B43: the ELISA_avg stood at 25.4 ratio.

Consider B44, for which the ELISA_avg came to 22.9 ratio.

For the molecule B45, the ELISA_avg stood at 8.54 ratio.

Molecule B46 gave an ELISA_avg of 20.2 ratio.

Take B47: the ELISA_avg stood at 15.2 ratio.

B48 returned an ELISA_avg of 10.9 ratio.

On to B49, for which the ELISA_avg came out at 19 ratio.

Consider B50, for which the ELISA_avg amounted to 8.21 ratio.
